Drawing on doi:10.1101/713677, this text covers β-galactosidase activity for one substance.

For the test, the target named is zip (positive control of the BACTH system). As to the kind of experiment: two-hybrid.

Take “zip (positive control of the BACTH system) (domain or fragment)”: the β-galactosidase activity was determined as 63300 Miller units.
